A short description of this data set: label from the status in PepcDB records.
“SADQIRQSVRHSLKDILMKRLTDSNLKVPEEKAAKVATKIEKELFSFFRDTDAKYKNKYRSLMFNLKDPKNNILFKKVLKGEVTPDHLIRMSPEELASKELAAWRRR”: the protein production entry is “not failed”.
Regarding “SAFQAAAARLGAPVSHDFCAISLSDLMTPWEVIEKRIEAAASADFVTAVYNPRSRDRYWQIHRFRELFLRHRSPSTPVGIVRNVTRKDESVVLTTLGEFDPDSLDMFTMMLVGNSTTF”, the protein production entry is given as “not failed”.
The entry for “SAKNAYTKLGTDDNAQLLDIRATADFRQVGSPNIKGLGKKAVSTVYNGEDKPGFLKKLSLKFKDPENTTLYILDKFDGNSELVAELVALNGFKSAYAIKDGAEGPRGWLNSSLPWIEPKKT” is “not failed”.
Regarding “SARHFGMALAPWDVMGGGRFQSKKAMEERRKNGEGIRSFVGASEQTDAEIKISEALAKIAEEHGTESVTAIAIAYVRSKAKNFFPSVEGGKIEDLKENIKALSIDLTPDNIKYLESIVPFDIGFPNNFIVLNSLTQKYGTNNV”, the protein production result is “not failed”.
The entry for “SASRGKTETSKLKQNLEEQLDRLMQQLQDLEECREELDTDEYEETKKETLEQLSEFNDSLKKIMSGNMTLVDELSGMQLAIQAAISQAFKTPEVIRLFAKKQPGQLRTRLAEMDRDLMVGKLERDLYTQQKVEILTALRKLGEKLTADDEAFLSANAGAILSQFEKVSTDLGSGDKILALASFEVEKTKK” is “not failed”.
For the sequence “SDDDNPTVDPANIDYTPENASSWHNYMRNVAALLKTDATNLYNAWNSSYKGGESYASLFKAHSGSPYASALSCVEEIVDKCAEIANEVGTAKIGDPYNLYKAGNTEEALYAVESWYSWHSRDDYTNNIYSIRNAYYGSLDGNINANSLSTVIAGANSSLDTKIKNAIQKAAKAIQDIPQPFRNHIPSNETVAAMDACAELESILKNDLKSYIANNSNNINTDAVLNPVVTQYVDAVVVPTYKSLKEKNDALYNAVIVLADNPSNSAFETACDAWITAREPWEKSEAFLFGPVDEMGLDPNMDSWPLDQNAIVQILNSQSWSDLEWSEGDDEAAVESAQNVRGFHTLEFLLYKNGEPRKVQ”, the protein production result was “not failed”.
The same measure for “SDNEFPDFDYQTVYFANQYGLRTIELGESEFVDNTLDNQHKMVIKAAWGGGYTNRNNVVINFKVDESLCDNLYFKDTDQPLVPMPASYYTLASDRIAIPKGQIMAGVEVQLTDDFFADEKSISENYVIPLLMTNVQGADSILQGKPVVENPVLTNAGDWSILPQNFVLYAVKYVNPWHGEYLRRGIDHATVAGTSKDIIRHEQFVENDEVVNISTKSMKDNLLTLKTKDESGKDISYTVRLSFAEDGSCTVHSGSQNVVVSGSGKFVSKGEKNSLGGKDRNAIYLDYTVNLTDNNIQLATKDTLVLRTRNVYGGKSLEVVRK”: “not failed”; for “SDPDADRIGVAVRNNEGRMVLINGNEICSLLIYYSIMRRKELGDLHPDDYIVKTIVTTELIRDIAKKEHVSMFDCYTGFKWIAAVIRENEGRRRYIGGGEESYGFLWEDFIRDKSSVSACALFCEMAAWALDRGMSVYRLIRSIYLEYGLYYE”: “failed”; for “SDRKVAREFRHKVDFLIENDAEKDYLYDVLRMYHQTMDVAVLVGDLKLVINEPSRLPLFDAIRPLIPLKHQVEYDQLTPRRSRKLKEVRLDRLHPEGLGLSVRGGLEFGCGLFISHLIKGGQADSVGLQVGDEIVRINGYSISSCTHEEVINLIRTKKTVSIKVRHIGLIPVKSSPDEPLTWQYVDQFVSESGGVRGSLGSPGNRENKEKKVFISLVGSRGLGCSISSGPIQKPGIFISHVKPGSLSAEVGLEIGDQIVEVNGVDFSNLDHKEGRELFMTDRERLAEARQRELQRQELLMQKRLAMESNKILQEQQEMERQRRKEIAQKAAEENERYRKEMEQIVEEEEKFKKQWEEDWGSKEQLLLPKTITAEVHPVPLRKPKYDQGVEPELEPADDLDGGTEEQGEQDFRKYEEGFDPYSMFTPEQIMGKDVRLLRIKKEGSLDLALEGGVDSPIGKVVVSAVYERGAAERHGGIVKGDEIMAINGKIVTDYTLAEADAALQKAWNQGGDWIDLVVAVCPPKEYDDELTFF”: “failed”.
The entry for “SDSTAGTDAVAVGGTFQFHSPDGKMEIFYDEADRQQLPDIGGDSLMEEGTQINLSDFENQVVILNAWGQWCAPCRSESDDLQIIHEELQAAGNGDTPGGTVLGINVRDYSRDIAQDFVTDNGLDYPSIYDPPFMTAASLGGVPASVIPTTIVLDKQHRPAAVFLREVTSKDVLDVALPLVDEA” is “not failed”.
“SEDINRNPLLPTKEDEKMDGVIYGAYLPNLEKSVIPIGTASESTEPVNRYQIGVNLAGDAWAGYMSPRDNKFNGSKNFTNYFMYENWVNYVYSFMVTDVYSPWMQIKRISQDEGTRNDEIYALAQIIKIAALHRTTDMFGPIPYSQVGKGSFKVAYDSQESVYRSFLKELEEAVQTLDDYSNKSKEVLPAFDIVYNGDVNKWMRFANSLMLRLAIRVRFADAGLAKEYAEKAVKHPAGLINSKELAAQMGKGAGLQMKNPLKVINEEYNDTRMGATIYSYLAGYNDARAAVYFVKNNGFKAVRCGIAKSGDAYNGFTRPNVHEDDPLYWMKASEVCFLKAEGALAGFDMGGSAGDFYNAGIRMSFSENGLDNSSAETYLKDSTRKPANYTDTSNGELSANAPSSITIRWENGATEEEKLERIITQKYLAIFPNGQEAWTEWRRTGYPRQIVVAENKTNSAVLIGNGYDLGGVRRLPYPRTEYEQNGENLHNAISQYLGGVDNAATKVWWDKKSK”: the protein production entry was “not failed”.
For the sequence “SEPPKMNPVVEPLSWMLGTWLSDPPGAGTYPTLQPFQYLEEVHISHVGQPMLNFSFNSFHPDTRKPMHRECGFIRLKPDTNKVAFVSAQNTGVVEVEEGEVNGQELCIASHSIARISFAKEPHVEQITRKFRLNSEGKLEQTVSMATTTQPMTQHLHVTYKKVTP”, the protein production result is recorded as “not failed”.
On to “SERRYKQLFDSGRDGIFVVQMDEEEGVAQIVEANWSAHEMFGYSQGAFEELAFASLVDKGEREGVERLLKELPLKGGALIESHFVLLEHRSIPIELSIQSFLLEEKRTLYVSARDIT”, for which the protein production result is “failed”.
In the case of “SERTELLKPRTLADLIRILHELFAGDEVNVEEVQAVLEAYESNPAEWALYAKFDQYRYTRNLVDQGNGKFNLMILCWGEGHGSSIHDHTDSHCFLKLLQGNLKETLFDWPDKKSNEMIKKSERTLRENQCAYINDSIGLHRVENVSHTEPAVSLHLYSPPFDTCHAFDQRTGHKNKVTMTFHSKFGIRTPFTTSGSLENN”, the protein production entry is given as “failed”.
Consider “SEVIRSQKRTVSNDVVSTPTLPLYLTAPHMEVRLEEFELFAIDRLRVLKGVSDGLARARNPNEMDDLVETLWKEHMRLSDVSEMINKDIISHFVLRLVYCRSDELKKWFLSMETAPFRHRFRLKKIEEQRAIVGEFGLPYKAVIGAELESLKERLGLVARSHGQISSDVENIYYKVPFEEVPDLVASRRVLLQKGFAFVAGTQLVSLVVTQFRSHLSKALILTNRKWTTTIREREKDRLTPIVEALSTSYLGPDYSQSNEYADISLKDIDQVSKSSFPLCMRHLFEKLREDHHLKHGGRMQLGLFLKGVGLKLDDALAFWREEFTKKVGSERFDKEYAYAIRHNYGKEGKRTDYTPYACSKIITSAPGAGDHHGCPYRHFSEDNLKAALSRMGLSSRGMEDVMDKVRNRHYQLACTLTFEAVYGTSCDTGINHPNQYFEESQKILKSKTPAAPV”, for which the protein production result is listed as “not failed”.
With “SFEIGCELEAQRELRAKQTLVGQVIDEDLMSIVYQPVWDIEAMQPLGFECLARFSPLPLRSPDKWFADAAEVGMGVELELHAIRKALQAIGRFPAPIDLSVNASAATILGGDLARLFDGVPLDRLIVEITEHSSVGNYDAILDVLRPLRQRGLRLAVDDAGAGYSSLHHILNMQPDFIKLDIGLTQNIDLDPARKALARALVGFARDTGSRIVAEGVERQSELDALRSIGVKKVQGYLLGRP”, the protein production result is given as “failed”.
The same measure for “SFQTVPSTAETSAVLLQDSGWDALAQRLALIETAEHSIDIQYYIWNSDASGHYLASRLLAAADRGVKVRVMLDDINLNEREDLLVALNAHPHVEIRVFNPIPTRRGVTKWVNFLGDFSRLNRRMHNKSFTVDGVFSVVGGRNIGDEYFDLSNEINFRDRDVLVRGSVVYDIQTSFIEYWDSRWSYPVDLLAKEASQEPLLQKQPVLDEIDAPVYKNYPA”: “failed”; for “SFRTTKEEVVEKAKAFISAHYTEELNLSVIASQLYVNPFYLRRIFKEETELSPSQYLLKKRIEAALALLVNQEETITDIAFKVGFKSPAHFSTVFRHMIGLPPQKYRES”: “failed”; for “SFSAPIEDLQVRIAFLDELVEQLNTQLALQTQEIADLKKQMQLLYQRVEASDLSEGIAPFDPNTNKPPHY”: “failed”.
As for “SGAAAAEADRTLFVGNLETKVTEELLFELFHQAGPVIKVKIPKDKDGKPKQFAFVNFKHEVSVPYAMNLLNGIRLYGRPIKIQFRSGSSHAPQDVSLSYPQHHVGNSSPTSTSPSRYERTMDNMTSSAQIIQRSFSSPENFQRQAVMNSALRQMSYGGKFGSSPLDQSGFSPSVQSHSHSFNQSSSSQWRQGTPSSQRKVRMNSYPYLADRHYSREQRYTDHGSDHHYRGKRDDFFYEDRNHDDWSHDYDNRRDSSRDGKWRSSRH”, the protein production result is listed as “not failed”.
In the case of “SGDERFTLRIKDLRTGELLPDIIEDIFYGVAFSPDGTRLFYTVVDDSWRPYQVKSHILGTPVAEDEVLYQEDDVAMWLGFDLSSDRRHLVLSIGCSEFSETRLLRFEDYDAGLHTVISREHHILYEAEPFLLDGKETLLLTHNKDAINSMVSLVDPAELSKPLAEQHWRTVVEHSDDVRVNGAGVTSTHLVLSVRKDTIERVQVLPLAGLGTATQGAPVEPAFHEELYTAGVSGSDYESPVIRMGYTSYFTPSRVYDFVLPTAEQPGGELLLRKESPVLGGYSASDYVATREWATADDGTQVPLSVLRHASVQQDGTAAGLVYGYGSYELSMDPGFGVARLSLLDRGIVMVIAHIRGGGELGRKWYEDGKKFTKKNTFTDFIAATDWLAGSGWVDPSRIAAMGGSAGGLLMGAVANMAPEKYAAVVAQVPFVDALTTILDPELPLSALEWEEWGNPITDPEAYAYMKSYTPYENVGAVPYPKIAAVTSFNDTRVLYVEPAKWVQALRSASTGSEPIVMKIEMDGGHGGASGRYVQWRERAWDYAFIADSVG”, the protein production entry is “failed”.
Take “SGEKSENCGVPEDLLNGLKVTDTQEAECAGPPVPDPKNQHSQSKLLRDDEAHLQEDQGEEECFHDCSASFEEEPGADKVENKSNEDVNSSELDEEYLIELKKNMSDEEKQKRREESTRLKEEGNEQFKKGDYIEAESSYSRALEMCPSCFQKERSILFSNRAAARMKQDKKEMAINDCSKAIQLNPSYIRAILRRAELYEKTDKLDEALEDYKSILEKDPSIHQAREACMRLPKQIEERNERLKEEMLGKLKDLGNLVLRPFGLSTENFQIKQDSSTGSYSINFVQNPNNNR”: the protein production entry is recorded as “not failed”.
The same measure for “SGHPPLEFSDCYLDSPDFRERLKCYEQELERTNKFIKDVIKDGNALISAMRNYSSAVQKFSQTLQSFQFDFIGDTLTDDEINIAESFKEFAELLNEVENERMMMVHNASDLLIKPLENFRKEQIGFTKERKKKFEKDGERFYSLLDRHLHLSSKKKESQLQEADLQVDKERHNFFESSLDYVYQIQEVQESKKFNIVEPVLAFLHSLFISNSLTVELTQDFLPYKQQLQLSLQNTRNHFSSTREEMEELKKRMKEAPQTCKLPGQPTIEGYLYTQEKCVWGHRGIHWVSISQELLPLVGCEFWAPLLFIDP”: “not failed”; for “SGKVILITGASRGIGLQLVKTVIEEDDECIVYGVARTEAGLQSLQREYGADKFVYRVLDITDRSRMEALVEEIRQKHGKLDGIVANAGMLEPVKSISQSNSEHDIKQWERLFDVNFFSIVSLVALCLPLLKSSPFVGNIVFVSSGASVKPYNGWSAYGCSKAALNHFAMDIASEEPSDKVRAVCIAPGVVDTQMQKDIRETLGPQGMTPKALERFTQLYKTSSLLDPKVPAAVLAQLVLKGIPDSLNGQYLRYNDERLGPVQG”: “not failed”.

The record behind these values is a protein production outcome set (Wang et al. 2014).
